# Results from PMC3907550.
# Legend:
# [1] = biological target: HA2His6-tagged Arabidopsis ADK (Arabidopsis) (UniProt Q9LZG0)
# [2] = biological target: HA2His6-tagged Arabidopsis ADK (Arabidopsis) (UniProt Q9LZG0); remark: listed apart in the source
# Sequence of UniProt Q9LZG0 (Q9LZG0 whole entry): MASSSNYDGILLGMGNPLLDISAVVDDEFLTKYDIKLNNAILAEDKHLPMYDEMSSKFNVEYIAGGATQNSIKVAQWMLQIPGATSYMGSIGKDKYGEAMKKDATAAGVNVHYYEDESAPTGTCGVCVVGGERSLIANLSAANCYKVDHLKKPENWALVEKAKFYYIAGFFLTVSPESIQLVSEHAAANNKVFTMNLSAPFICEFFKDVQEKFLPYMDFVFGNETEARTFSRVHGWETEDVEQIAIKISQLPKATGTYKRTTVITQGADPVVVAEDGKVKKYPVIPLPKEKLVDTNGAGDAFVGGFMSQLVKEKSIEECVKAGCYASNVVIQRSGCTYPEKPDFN
substance,measurement,setting,value
HA2His6-tagged SnRK1 kinase domain (SnRK1-KD; amino acids 1-343) (from UniProt P92958 1-343) (domain or fragment),"ADK activity (labeled 5′-AMP from adenosine and γ32P-ATP) with a two-fold molar excess of HA2His6-SnRK1-KD, against ADK+GFP",[1],6 fold
same,"ADK activity against increasing HA2His6-SnRK1-KD:ADK molar ratio, up to 4∶1",[2],90 % of maximum
